From patent US20160207991A1
Like-named read-outs stand apart in the source and are kept apart here.

What was measured:
[1] = target: human brain-derived neurotrophic factor (BDNF) (human) (UniProt P23560); assay: cell-based or functional assay
[2] = target: human brain-derived neurotrophic factor (BDNF) (human) (UniProt P23560); assay: cell-based or functional assay; remark: listed apart in the source

Chain of human brain-derived neurotrophic factor (BDNF) (human) (P23560 129-247 limits assumed): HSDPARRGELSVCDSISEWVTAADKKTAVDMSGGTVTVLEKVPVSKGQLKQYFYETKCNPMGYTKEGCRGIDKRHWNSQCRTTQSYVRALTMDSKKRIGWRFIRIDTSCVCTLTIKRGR

In the case of “TrkB-Fc (Sigma T8694) (from UniProt P15209 32-429) (Fc fusion)”, the PathHunter pTrkB assay in U2OS TrkB/p75NTR cells, 300 pM BDNF [1] is reported as 24 nM, the pERK assay in U2OS TrkB/p75NTR cells, 150 pM BDNF [1] is reported as 7.6 nM and the PathHunter pTrkB assay in U2OS TrkB/p75NTR cells, 300 pM BDNF [2] is reported as 4.4 nM.
